From PMC6317306
Residue numbers refer to the chain shown, from its start. Each block holds one binder with its values, some of them ahead of it.

Biological target: FLAG-Cep85-6D (UniProt Q6P2H3)
Experiment: co-IP

percent reduction of affinity against Nek2A-4A: 50%
B1: HA-Nek2A (enzyme)
chain: MPSRAEDYEVLYTIGTGSYGRCQKIRRKSDGKILVWKELDYGSMTEAEKQMLVSEVNLLRELKHPNIVRYYDRIIDRTNTTLYIVMEYCEGGDLASVITKGTKERQYLDEEFVLRVMTQLTLALKECHRRSDGGHTVLHRDLKPANVFLDGKQNVKLGDFGLARILNHDTSFAKTFVGTPYYMSPEQMNRMSYNEKSDIWSLGCLLYELCALMPPFTAFSQKELAGKIREGKFRRIPYRYSDELNEIITRMLNLKDYHRPSVEEILENPLIADLVADEQRRNLERRGRQLGEPEKSQDSSPVLSELKLKEIQLQERERALKAREERLEQKEQELCVRERLAEDKLARAENLLKNYSLLKERKFLSLASNPELLNLPSSVIKKKVHFSGESKENIMRSENSESQLTSKSKCKDLKKRLHAAQLRAQALSDIEKNYQLKSRQILGMR

percent reduction of affinity against Nek2A-4A: > 60%
B2: HA-Nek2A-4D (enzyme)
chain: B1 chain with S356D, S365D, S406D, S438D
